Measured values as given in publication PMC3696110, “Hsp70 Oligomerization Is Mediated by an Interaction between the Interdomain Linker and the Substrate-Binding Domain” (PLoS ONE, 2013).

Molecular target: T1, SBD641 (human Hsp70 residues 384-641) (human, UniProt P0DMV8 384-641)
T1 construct: Thrombin cleavage of the His tag is stated as >99% for all variants; also called full-length SBD; not shown: His6, N-terminal, cleaved
Assay: native MS; nESI-MS of SBD641 in the presence of NR peptide at a 1:1 molar ratio; 150 mM ammonium acetate, pH 7.4
Conditions: both partners purified

T1 sequence (P0DMV8 384-641): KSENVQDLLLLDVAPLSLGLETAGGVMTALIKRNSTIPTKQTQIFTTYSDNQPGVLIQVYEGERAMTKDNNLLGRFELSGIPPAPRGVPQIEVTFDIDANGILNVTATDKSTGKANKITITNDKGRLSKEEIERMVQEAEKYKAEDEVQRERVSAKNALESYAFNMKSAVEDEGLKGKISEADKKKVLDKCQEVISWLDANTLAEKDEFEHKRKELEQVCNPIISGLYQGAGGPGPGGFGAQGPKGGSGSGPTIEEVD

binding result: binds
B1: NR peptide (NRLLLTG), non-dansylated (peptide)
peptide: NRLLLTG
notes: model Hsp70 substrate peptide; the peptide of that experiment may have carried the dansyl group (surmise); also called ND-NR; source: synthetic peptide (Genemed Synthesis Inc.)
